Test results as given in patent US20260209362A1 (VIB VZW, published 2026).

T1: human IL-12Rβ2 expressed on cells (human, UniProt Q99665 24-862)
T1 construct: HEK293T cells transiently transfected with a human IL-12Rβ2 plasmid (Genscript OHu21785); also called hIL-12RB2
T1 sequence: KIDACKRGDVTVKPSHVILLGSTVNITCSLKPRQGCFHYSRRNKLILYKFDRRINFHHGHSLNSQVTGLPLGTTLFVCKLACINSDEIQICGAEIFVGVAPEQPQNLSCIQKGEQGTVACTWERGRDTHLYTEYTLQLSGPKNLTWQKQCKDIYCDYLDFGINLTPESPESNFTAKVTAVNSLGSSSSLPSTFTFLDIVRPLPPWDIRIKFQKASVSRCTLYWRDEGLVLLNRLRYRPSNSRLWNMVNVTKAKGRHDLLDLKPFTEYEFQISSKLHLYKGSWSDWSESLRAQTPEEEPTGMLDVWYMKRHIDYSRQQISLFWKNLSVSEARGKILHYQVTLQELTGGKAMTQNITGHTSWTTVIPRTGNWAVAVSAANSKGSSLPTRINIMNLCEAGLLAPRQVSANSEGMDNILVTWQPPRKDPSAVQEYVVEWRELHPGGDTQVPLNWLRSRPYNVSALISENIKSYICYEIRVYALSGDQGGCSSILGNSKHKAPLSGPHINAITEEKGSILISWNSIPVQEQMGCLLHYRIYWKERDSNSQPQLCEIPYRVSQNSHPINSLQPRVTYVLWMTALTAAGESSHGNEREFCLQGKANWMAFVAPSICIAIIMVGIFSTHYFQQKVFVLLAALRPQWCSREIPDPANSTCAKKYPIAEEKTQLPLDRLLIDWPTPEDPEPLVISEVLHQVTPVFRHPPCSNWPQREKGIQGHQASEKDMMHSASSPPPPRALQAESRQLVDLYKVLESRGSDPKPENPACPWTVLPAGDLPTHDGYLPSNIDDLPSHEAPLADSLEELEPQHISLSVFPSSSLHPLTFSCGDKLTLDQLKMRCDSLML

T2: biotinylated recombinant human IL-12Rβ2 (produced in-house) (human, UniProt Q99665 24-622, random biotinylated)
T2 construct: also called hIL-12RB2; hIL12RB2
T2 sequence: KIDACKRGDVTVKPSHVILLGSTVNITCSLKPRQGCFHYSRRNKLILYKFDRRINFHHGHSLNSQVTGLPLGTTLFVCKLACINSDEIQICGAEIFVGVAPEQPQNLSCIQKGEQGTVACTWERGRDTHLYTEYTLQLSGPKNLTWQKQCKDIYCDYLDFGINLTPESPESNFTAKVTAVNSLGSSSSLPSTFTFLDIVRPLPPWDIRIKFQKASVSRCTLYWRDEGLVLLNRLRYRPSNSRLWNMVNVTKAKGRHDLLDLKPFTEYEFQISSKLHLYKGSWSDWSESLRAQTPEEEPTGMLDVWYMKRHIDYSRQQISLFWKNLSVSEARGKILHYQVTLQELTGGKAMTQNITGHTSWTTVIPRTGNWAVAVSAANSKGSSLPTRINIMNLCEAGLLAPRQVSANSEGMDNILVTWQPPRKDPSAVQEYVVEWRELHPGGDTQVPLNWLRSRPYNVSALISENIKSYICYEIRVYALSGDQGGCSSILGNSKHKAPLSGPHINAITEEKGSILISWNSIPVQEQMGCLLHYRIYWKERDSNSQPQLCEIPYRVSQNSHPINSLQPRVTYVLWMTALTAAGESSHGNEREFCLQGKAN

T3: biotinylated recombinant mouse IL-12Rβ2 (produced in-house) (mouse, UniProt P97378 24-637, random biotinylated)
T3 construct: also called mIL-12RB2; mIL12RB2
T3 sequence: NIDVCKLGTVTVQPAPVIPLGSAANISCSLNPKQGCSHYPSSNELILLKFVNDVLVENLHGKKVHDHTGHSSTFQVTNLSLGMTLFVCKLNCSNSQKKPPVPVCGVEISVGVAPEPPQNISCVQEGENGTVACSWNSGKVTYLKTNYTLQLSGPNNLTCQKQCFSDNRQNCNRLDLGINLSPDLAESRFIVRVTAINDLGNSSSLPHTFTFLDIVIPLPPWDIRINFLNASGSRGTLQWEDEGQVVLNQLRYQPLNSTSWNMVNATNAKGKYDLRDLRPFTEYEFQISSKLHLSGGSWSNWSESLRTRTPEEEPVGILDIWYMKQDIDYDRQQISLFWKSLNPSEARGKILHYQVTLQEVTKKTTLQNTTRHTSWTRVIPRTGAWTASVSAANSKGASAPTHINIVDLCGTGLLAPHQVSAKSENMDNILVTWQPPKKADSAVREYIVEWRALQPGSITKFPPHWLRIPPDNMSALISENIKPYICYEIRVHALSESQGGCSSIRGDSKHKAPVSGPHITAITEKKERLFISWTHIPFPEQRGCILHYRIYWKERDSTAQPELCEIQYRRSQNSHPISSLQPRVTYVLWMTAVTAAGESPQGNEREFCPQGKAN

T4: biotinylated recombinant human IL-12Rβ2 (human, UniProt Q99665 24-622, random biotinylated)
T4 construct: Recombinant protein produced in-house, biotinylated; also called hIL-12RB2; human IL-12RB2
T4 sequence: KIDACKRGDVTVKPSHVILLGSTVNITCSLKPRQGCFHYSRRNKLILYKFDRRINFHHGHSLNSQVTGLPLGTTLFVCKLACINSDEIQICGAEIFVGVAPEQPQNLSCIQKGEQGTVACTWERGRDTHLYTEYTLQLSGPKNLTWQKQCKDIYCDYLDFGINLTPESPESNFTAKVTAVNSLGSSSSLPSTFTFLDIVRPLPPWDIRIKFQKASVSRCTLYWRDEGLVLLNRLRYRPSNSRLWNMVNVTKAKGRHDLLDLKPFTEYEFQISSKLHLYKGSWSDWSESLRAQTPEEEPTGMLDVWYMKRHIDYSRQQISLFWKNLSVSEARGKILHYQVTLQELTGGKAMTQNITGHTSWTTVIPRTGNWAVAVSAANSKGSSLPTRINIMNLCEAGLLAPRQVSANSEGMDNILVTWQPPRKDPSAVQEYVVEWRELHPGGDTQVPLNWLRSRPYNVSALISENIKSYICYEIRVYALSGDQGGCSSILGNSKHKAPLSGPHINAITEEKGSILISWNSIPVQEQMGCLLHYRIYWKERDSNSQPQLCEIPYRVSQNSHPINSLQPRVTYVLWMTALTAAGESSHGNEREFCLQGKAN

T5: biotinylated recombinant mouse IL-12Rβ2 (mouse, UniProt P97378 24-637, random biotinylated)
T5 construct: Recombinant protein produced in-house, biotinylated; also called mIL-12RB2; mouse IL-12RB2
T5 sequence: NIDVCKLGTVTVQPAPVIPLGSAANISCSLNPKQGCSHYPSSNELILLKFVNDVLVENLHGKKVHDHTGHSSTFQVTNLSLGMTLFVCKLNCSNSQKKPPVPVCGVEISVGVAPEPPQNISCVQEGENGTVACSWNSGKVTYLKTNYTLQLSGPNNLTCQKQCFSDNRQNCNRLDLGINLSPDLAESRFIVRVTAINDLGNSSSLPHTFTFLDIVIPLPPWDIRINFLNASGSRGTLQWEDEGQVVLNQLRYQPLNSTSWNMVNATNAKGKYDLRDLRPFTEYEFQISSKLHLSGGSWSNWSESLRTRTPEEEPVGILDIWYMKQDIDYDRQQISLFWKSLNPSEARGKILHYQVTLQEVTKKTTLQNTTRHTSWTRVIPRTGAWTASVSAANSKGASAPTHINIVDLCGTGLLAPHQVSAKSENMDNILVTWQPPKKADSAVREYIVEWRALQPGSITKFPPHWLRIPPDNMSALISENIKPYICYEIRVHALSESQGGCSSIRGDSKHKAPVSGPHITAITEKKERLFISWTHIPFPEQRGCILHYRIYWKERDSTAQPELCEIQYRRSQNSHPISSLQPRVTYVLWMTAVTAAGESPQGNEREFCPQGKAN


Tests used:
[1] = target: T1, human IL-12Rβ2 expressed on cells; assay: flow cytometry, P.E. VHH on HEK293T cells transiently expressing hIL-12RB2
[2] = target: T2, biotinylated recombinant human IL-12Rβ2 …; assay: BLI (Octet), P.E. VHH on immobilised biotinylated hIL-12RB2
[3] = target: T2, biotinylated recombinant human IL-12Rβ2 …; assay: ELISA, P.E. VHH on biotinylated hIL-12RB2, signal ratio to control well
[4] = target: T3, biotinylated recombinant mouse IL-12Rβ2 …; assay: ELISA, P.E. VHH on biotinylated mIL-12RB2, signal ratio to control well
[5] = target: T2, biotinylated recombinant human IL-12Rβ2 …; assay: BLI (Octet), P.E. VHH on immobilised biotinylated hIL-12RB2, 1:1 model
[6] = target: T3, biotinylated recombinant mouse IL-12Rβ2 …; assay: ELISA, P.E. VHH on biotinylated mIL-12RB2
[7] = target: T4, biotinylated recombinant human IL-12Rβ2; assay: BLI (Octet), periplasmic extract on biotinylated hIL-12Rβ2 on streptavidin tips
[8] = target: T5, biotinylated recombinant mouse IL-12Rβ2; assay: BLI (Octet), periplasmic extract on biotinylated mIL-12Rβ2 on streptavidin tips
[9] = target: T4, biotinylated recombinant human IL-12Rβ2; assay: BLI (Octet), periplasmic extract on biotinylated hIL-12Rβ2 on streptavidin tips, 1:1 model
[10] = target: T4, biotinylated recombinant human IL-12Rβ2; assay: ELISA, periplasmic extract on biotinylated hIL-12Rβ2, signal over control wells
[11] = target: T5, biotinylated recombinant mouse IL-12Rβ2; assay: ELISA, periplasmic extract on biotinylated mIL-12Rβ2, signal over control wells
[12] = target: T5, biotinylated recombinant mouse IL-12Rβ2; assay: BLI (Octet), periplasmic extract on biotinylated mIL-12Rβ2 on streptavidin tips, 1:1 model

Binder	dMFI [1]	Response [2]	ELISA hIL12RB2/control [3]	ELISA mIL12RB2/control [4]	koff [5] [s⁻¹]	binding result [6]	Response [7]	Response [8]	koff [9] [s⁻¹]	ELISA binding hIL-12RB2/control [10] [ratio]	ELISA binding mIL-12RB2/control [11] [ratio]	koff [12] [s⁻¹]
anti-IL-12Rβ2 VHH clone 3CAHS171 (VHH, not shown: small tags and cut ends, tested as periplasmic extract; also called 3CANS171) VHH: QVQLQESGGGLVQPGGSLRLTCVASGFPFSTHAMSWVRQPPGKGREWISAINSGGDSTDYADSVMGRFTISRDNAKNTVYLQMNSLKSEDTAAYYCAKYEDCSDYDCSSRASWGQGTQVTVSS	1180	0.195	3.27	0.96	0.00431	no binding	–	–	–	–	–	–
anti-IL-12Rβ2 VHH clone 21058 (VHH, not shown: small tags and cut ends, tested as periplasmic extract; also called 3CRHM49) VHH: QVQLQESGGGLVQAGGSLRLSCAASGRTFSNYAMAWFRQAPGTEREFVAGLSGSGGDTAFYDNSVMGRFTISRDSAKNTMWLQINNLKPEDTAVYYCAAATHVVVSYGLVRRRGTYDYWGQGTQVTVSS	–	–	–	–	–	–	1.54	1.15	0.00619	3.2	41.2	0.00583
anti-IL-12Rβ2 VHH clone 21053 (VHH, not shown: small tags and cut ends, tested as periplasmic extract; also called 3CRHM14) VHH: QVQLQESGGGLVQAGGSLRLSCAASGRTFSNYAMAWFRQAPGTEREFVAGLSGSGGDTEFYDDSVKGRFAISRDSAKNTVWLQMNSLKPEDTAVYYCAAATHVVVHYGLVRRRGTYDYWGQGTQVTVSS	–	–	–	–	–	–	1.19	0.957	0.00532	3.11	25.1	0.00483

Second part, the binder after the results:

dMFI [1]	Response [2]	ELISA hIL12RB2/control [3]	ELISA mIL12RB2/control [4]	koff [5] [s⁻¹]	binding result [6]	Response [7]	Response [8]	koff [9] [s⁻¹]	ELISA binding hIL-12RB2/control [10] [ratio]	ELISA binding mIL-12RB2/control [11] [ratio]	koff [12] [s⁻¹]	Binder
–	–	–	–	–	–	1.38	1.01	0.00571	3.58	5.37	0.00546	anti-IL-12Rβ2 VHH clone 21064 (VHH, not shown: small tags and cut ends, tested as periplasmic extract; also called 3CRHM200) VHH: QVQLQESGGGLVQPGGSLRLSCAASGRTFSNYAMAWFRQAPGTEREFVAGLSGSGGDTAFYDNSVMGRFTISRDSAKNTMWLQINNLKPEDTAVYYCAAATHVVVSYGLVRRRGTYDYWGQGTQVTVSS
–	–	–	–	–	–	1.36	1.04	0.00576	4.84	35.5	0.00535	anti-IL-12Rβ2 VHH clone 21057 (VHH, not shown: small tags and cut ends, tested as periplasmic extract; also called 3CRHM35) VHH: QVQLQESGGGLVQAGGSLRLSCAASGRTFSNYAMAWFRQAPGTEREFVAGLSGSGGDTAFYDNSVMGRFTISRDSAKNTMWLQINNLKPEDTAVYYCAAATHVVVNYGLVRRRGTYDYWGQGTQVTVSS
–	–	–	–	–	–	1.14	0.699	0.00548	3.61	45	0.00618	anti-IL-12Rβ2 VHH clone 21054 (VHH, not shown: small tags and cut ends, tested as periplasmic extract; also called 3CRHM18) VHH: QVQLQESGGGLVQDGGSLRLSCAASGRTFSNYAMAWFRQAPGTEREFVAGLSGSGGDTAFYDNSVMGRFTISRDSAKNTMWLQINNLKPEDTAVYYCAAATHVVVSYGLVRKRGTYDYWGQGTQVTVSS
